Measured values taken from the RNAGym collection of RNA variant scans (doi:10.1093/molbev/msab373).

B1: Azoarcus group I ribozyme (parent)
chain: GUGCCUUGCGCCGGGAAACCACGCAAGGGAUGGUGUCAAAUUCGGCGAAACCUAAGCGCCCGCCCGGGCGUAUGGCAACGCCGAGCCAAGCUUCGGCGCCUGCGCCGAUGAAGGUGUAGAGACUAGACGGCACCCACCUAAGGCAAACGCUAUGGUGAAGGCAUAGUCCAGGGAGUGGCGAAAGUCACACAAACCGG

Variants of: B1
Assay: reverse-splicing fitness (ratio to wild type); higher = more active; in vitro selection; Mg2+ level not given
How it was run: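 An in vitro group I ribozyme library with randomized positions was T7-transcribed and gel-purified. In triplicate, 10 pmol RNA in EPPS pH 7.5 was reacted with 50 pmoles of a 30-nt RNA substrate for 1 h at 37 °C across several added MgCl2 levels (1–48 mM), then stopped with EDTA. Products were reverse transcribed from a substrate-complementary primer, PCR-amplified and sequenced (HiSeq 4000). Fitness is a variant's read proportion after selection over that before, normalised to wild type.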

Row | Variant | reverse-splicing fitness
1 | GUGCCUUGCGCCGGGAAACCACGCAAGGGAUGGUGUCAAAUUCGGCGAAACCUAAGCGCCCGCCCGGGCGUAUGGCAACGCGGAGCCAAGCUUCGGCGCCUGCGCCGAUGCAGGUGUAGCGACUAGACGGCACCCACCUAAGGCUAACGAUAUGGUGAAGGCAUAGUCUAGGGAGCGGCGAAAGUCACACAAACCGG [C82G A111C A120C A145U C150A C169U U176C] | 0.0133
2 | GUGCCUUGCGCCGGGAAACCACGCAAGGGAUGGUGUCAAAUUCGGCGAAACCUAAGCGCCCGCCCGGGCGUAUGGCAACGCGGAGCCAAGCUUCGGCGCCUGCGCCGAUGCAGGUGUAGCGACUAGACGGCACCCACCUAAGGCUAACGAUAUGGUGAAGGCAUAGUCUAGGGAGAGGCGAAAGUCACACAAACCGG [C82G A111C A120C A145U C150A C169U U176A] | 0.0126
3 | GUGCCUUGCGCCGGGAAACCACGCAAGGGAUGGUGUCAAAUUCGGCGAAACCUAAGCGCCCGCCCGGGCGUAUGGCAACGCGGAGCCAAGCUUCGGCGCCUGCGCCGAUGCAGGUGUAGCGACUAGACGGCACCCACCUAAGGCUAACGAUAUGGUGAAGGCAUAGUCUAGGGAGGGGCGAAAGUCACACAAACCGG [C82G A111C A120C A145U C150A C169U U176G] | 0.00817
4 | GUGCCUUGCGCCGGGAAACCACGCAAGGGAUGGUGUCAAAUUCGGCGAAACCUAAGCGCCCGCCCGGGCGUAUGGCAACGCGGAGCCAAGCUUCGGCGCCUGCGCCGAUGCAGGUGUAGCGACUAGACGGCACCCACCUAAGGCUAACGGUAUGGUGAAGGCAUAGUCAAGGGAGCGGCGAAAGUCACACAAACCGG [C82G A111C A120C A145U C150G C169A U176C] | 0.0108
5 | GUGCCUUGCGCCGGGAAACCACGCAAGGGAUGGUGUCAAAUUCGGCGAAACCUAAGCGCCCGCCCGGGCGUAUGGCAACGCGGAGCCAAGCUUCGGCGCCUGCGCCGAUGCAGGUGUAGCGACUAGACGGCACCCACCUAAGGCUAACGGUAUGGUGAAGGCAUAGUCAAGGGAGGGGCGAAAGUCACACAAACCGG [C82G A111C A120C A145U C150G C169A U176G] | 0.00726
6 | GUGCCUUGCGCCGGGAAACCACGCAAGGGAUGGUGUCAAAUUCGGCGAAACCUAAGCGCCCGCCCGGGCGUAUGGCAACGCGGAGCCAAGCUUCGGCGCCUGCGCCGAUGCAGGUGUAGCGACUAGACGGCACCCACCUAAGGCUAACGGUAUGGUGAAGGCAUAGUCAAGGGAGAGGCGAAAGUCACACAAACCGG [C82G A111C A120C A145U C150G C169A U176A] | 0.0121
7 | GUGCCUUGCGCCGGGAAACCACGCAAGGGAUGGUGUCAAAUUCGGCGAAACCUAAGCGCCCGCCCGGGCGUAUGGCAACGCGGAGCCAAGCUUCGGCGCCUGCGCCGAUGCAGGUGUAGCGACUAGACGGCACCCACCUAAGGCUAACGGUAUGGUGAAGGCAUAGUCGAGGGAGGGGCGAAAGUCACACAAACCGG [C82G A111C A120C A145U C150G C169G U176G] | 0.00673
8 | GUGCCUUGCGCCGGGAAACCACGCAAGGGAUGGUGUCAAAUUCGGCGAAACCUAAGCGCCCGCCCGGGCGUAUGGCAACGCGGAGCCAAGCUUCGGCGCCUGCGCCGAUGCAGGUGUAGCGACUAGACGGCACCCACCUAAGGCUAACGGUAUGGUGAAGGCAUAGUCGAGGGAGCGGCGAAAGUCACACAAACCGG [C82G A111C A120C A145U C150G C169G U176C] | 0.00759
9 | GUGCCUUGCGCCGGGAAACCACGCAAGGGAUGGUGUCAAAUUCGGCGAAACCUAAGCGCCCGCCCGGGCGUAUGGCAACGCGGAGCCAAGCUUCGGCGCCUGCGCCGAUGCAGGUGUAGCGACUAGACGGCACCCACCUAAGGCUAACGGUAUGGUGAAGGCAUAGUCGAGGGAGAGGCGAAAGUCACACAAACCGG [C82G A111C A120C A145U C150G C169G U176A] | 0.0088
10 | GUGCCUUGCGCCGGGAAACCACGCAAGGGAUGGUGUCAAAUUCGGCGAAACCUAAGCGCCCGCCCGGGCGUAUGGCAACGCGGAGCCAAGCUUCGGCGCCUGCGCCGAUGCAGGUGUAGCGACUAGACGGCACCCACCUAAGGCUAACGAUAUGGUGAAGGCAUAGUCUAGGGAGUGGCGAAAGUCACACAAACCGG [C82G A111C A120C A145U C150A C169U] | 0.011
11 | GUGCCUUGCGCCGGGAAACCACGCAAGGGAUGGUGUCAAAUUCGGCGAAACCUAAGCGCCCGCCCGGGCGUAUGGCAACGCGGAGCCAAGCUUCGGCGCCUGCGCCGAUGCAGGUGUAGCGACUAGACGGCACCCACCUAAGGCUAACGAUAUGGUGAAGGCAUAGUCGAGGGAGUGGCGAAAGUCACACAAACCGG [C82G A111C A120C A145U C150A C169G] | 0.0083
12 | GUGCCUUGCGCCGGGAAACCACGCAAGGGAUGGUGUCAAAUUCGGCGAAACCUAAGCGCCCGCCCGGGCGUAUGGCAACGCGGAGCCAAGCUUCGGCGCCUGCGCCGAUGCAGGUGUAGCGACUAGACGGCACCCACCUAAGGCUAACGAUAUGGUGAAGGCAUAGUCGAGGGAGGGGCGAAAGUCACACAAACCGG [C82G A111C A120C A145U C150A C169G U176G] | 0.00775
13 | GUGCCUUGCGCCGGGAAACCACGCAAGGGAUGGUGUCAAAUUCGGCGAAACCUAAGCGCCCGCCCGGGCGUAUGGCAACGCGGAGCCAAGCUUCGGCGCCUGCGCCGAUGCAGGUGUAGCGACUAGACGGCACCCACCUAAGGCUAACGAUAUGGUGAAGGCAUAGUCGAGGGAGAGGCGAAAGUCACACAAACCGG [C82G A111C A120C A145U C150A C169G U176A] | 0.0143
14 | GUGCCUUGCGCCGGGAAACCACGCAAGGGAUGGUGUCAAAUUCGGCGAAACCUAAGCGCCCGCCCGGGCGUAUGGCAACGCGGAGCCAAGCUUCGGCGCCUGCGCCGAUGCAGGUGUAGCGACUAGACGGCACCCACCUAAGGCUAACGAUAUGGUGAAGGCAUAGUCGAGGGAGCGGCGAAAGUCACACAAACCGG [C82G A111C A120C A145U C150A C169G U176C] | 0.0169
15 | GUGCCUUGCGCCGGGAAACCACGCAAGGGAUGGUGUCAAAUUCGGCGAAACCUAAGCGCCCGCCCGGGCGUAUGGCAACGCGGAGCCAAGCUUCGGCGCCUGCGCCGAUGCAGGUGUAGCGACUAGACGGCACCCACCUAAGGCUAACGGUAUGGUGAAGGCAUAGUCUAGGGAGUGGCGAAAGUCACACAAACCGG [C82G A111C A120C A145U C150G C169U] | 0.00897
